Patent US20080207488A1, “Method for Detecting Peptides Comprising a Cross-B Structure” (priority 2005, published 2008)

Key:
Congo red fluorescence = assay type: physicochemical; settings: for Fluorescence (a.u. +/− SD) CR: marketed biopharmaceutical within expiry limits, five μL tested; for enhancement of Congo red fluorescence: therapeutics stored at 4° C.
Method: (§1) Background signals from buffer, buffer with Congo red and protein/peptide solution without Congo red were subtracted from corresponding measurements with protein solution incubated with Congo red. Fluorescence was measured in triplicate on a Hitachi F-4500 fluorescence spectrophotometer (Ltd., Tokyo, Japan).
(§2) Formulated protein therapeutics were obtained from the local hospital pharmacy and were used as supplied by the manufacturers. […] Lyophilized therapeutics were dissolved according to the manufacturers recommendations. […] Other protein therapeutics were only kept at 4° C., and assayed for the presence of cross-β structure conformation at shown time points. Enhancement in fluorescence of ThT and Congo red was measured with all formulated protein therapeutics. For this purpose, proteins were diluted to the indicated concentrations. […] Zinc-insulin was diluted tenfold in the activation assay, GH was diluted to a final concentration of 500 μg ml^−1. Activation of factor XII and prekallikrein by the therapeutics was tested in the chromogenic factor XII assay (see above). […] After coating, plates were blocked with Blocking Reagent (Roche Diagnostics, Almere, The Netherlands).
(§3) Protein therapeutics were obtained from the local hospital pharmacy and analyzed within the expiry limits as stated by the manufacturers.

[1] = Thioflavin T fluorescence; assay type: physicochemical; settings: for Fluorescence (a.u. +/− SD) ThT: marketed biopharmaceutical within expiry limits, five μL tested
Method: as §1, with “Fluorescence of ThT-protein/peptide adducts was measured as follows. […] Fluorescence was measured at 485 nm upon excitation at 435 nm. Background” for “Background”, “ThT” for “Congo red”, “ThT. […]” for “Congo red.”
as §2
To prepare structurally altered ovalbumin (OVA) with amyloid cross-β structure conformation, purified OVA (Sigma, A-7641, lot 071k7094) was heated to 85° C. One mg ml^−1 OVA in 67 mM NaPi buffer pH 7.0, 100 mM NaCl, was heated for two cycles in PCR cups in a PTC-200 thermal cycler (MJ Research, Inc., Waltham, Mass., USA). In each cycle, OVA was heated from 30 to 85° C. at a rate of 5° C./min. Native OVA (nOVA) and heat-denatured OVA (dOVA) were tested in the ThT fluorescence assay and in the Plg-activation assay. In the fluorescence assay and in the Plg-activation assay, 25 and 100 μg ml^−1 nOVA and dOVA were tested, respectively. TEM images of nOVA and dOVA were taken to check for the presence of large aggregates. […] MSA (#126674, Calbiochem) was dissolved in 8 M urea, 100 mM Tris-HCl pH 8.2, at 10 mg ml^−1 final concentration. Dithiothreitol (DTT) was added to a final concentration of 10 mM. Air was replaced by N2 and the solution was incubated for 2 h at room temperature. Then, the solution was transferred to ice and iodoacetamide was added from a 1 M stock to a final concentration of 20 mM. […] Alkyl-MSA was dialyzed against H2O before use. […] In the ThT-fluorescence assay 25 μg ml^−1 nMSA and alkyl-MSA were tested, and in the Plg-activation assay 100 μg ml^−1 was tested. The presence of aggregates or fibrils was analyzed using TEM. […]
as §3

tPA [2] = target: T1, tPA (Homo sapiens, UniProt P00750); experiment: tPA/plasminogen activation assay (400 pM tPA); assay type: biochemical; settings: % of standardized positive control (denatured γ-globulins 100 μg/ml); 1:10 diluted samples
T1 construct: purchased Boehringer-Ingelheim (Actilyse, Alteplase)
T1 sequence (P00750 36-562): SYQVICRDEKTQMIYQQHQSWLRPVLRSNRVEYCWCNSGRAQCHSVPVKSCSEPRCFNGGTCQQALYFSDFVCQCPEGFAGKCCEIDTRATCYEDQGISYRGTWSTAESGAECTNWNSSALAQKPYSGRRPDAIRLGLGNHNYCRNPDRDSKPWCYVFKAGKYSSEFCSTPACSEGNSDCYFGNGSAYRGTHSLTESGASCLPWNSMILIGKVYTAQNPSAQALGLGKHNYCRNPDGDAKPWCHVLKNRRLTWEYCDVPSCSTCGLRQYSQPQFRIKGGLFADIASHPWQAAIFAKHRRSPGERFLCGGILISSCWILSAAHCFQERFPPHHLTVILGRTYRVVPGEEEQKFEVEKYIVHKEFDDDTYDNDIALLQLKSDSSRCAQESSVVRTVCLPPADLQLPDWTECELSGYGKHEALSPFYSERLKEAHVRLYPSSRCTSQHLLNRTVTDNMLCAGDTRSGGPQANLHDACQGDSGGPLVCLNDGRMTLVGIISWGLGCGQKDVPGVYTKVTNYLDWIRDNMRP
Method: β2-GPI was reduced and alkylated as follows. Six hundred forty μl of β2-GPI stock was mixed with 640 μl of 8 M Urea (cooled solution) in 0.1 M Tris pH=8.2. The solution was degassed with N2 gas for approximately 6 minutes. From a 1 M DTT stock 12.8 μl was added to the solution, mixed and incubated for 3 hours at room temperature. A 1 M Iodoacetamide (Sigma; 1-6125) was prepared, of which 25.6 μl was added to the β2-GPI reaction mixture. The solution was subsequently dialysed against PBS. […] Signals obtained with alkyl-62gpi are compared with those obtained with native β2gpi starting material.
Exiqon Peptide Immobilizer plates were blocked for 1 hour with PBS, 1% Tween20 and rinsed twice with distilled water. The conversion of the chromogenic substrate S-2251 (Chromogenix, Italy) by plasmin was kinetically measured at 37° C. on a Spectramax340 microplate reader at a wavelength of 405 nm. […] Denatured γ-globulins (100 μg/ml) with amyloid-like structure was used as reference and positive control. Lyophilized γ-globulins (Sigma, MO, USA) were dissolved in a 1(:)1 volume ratio of 1,1,1,3,3,3-hexafluoro-2-propanol and trifluoro-acetic acid and subsequently dried under air. Dried γ-globulins was dissolved in H2O to a final concentration of 1 mg/ml and kept at room temperature for at least three days and subsequently stored at −20° C.
as §3

[3] = Stability testing of biopharmaceuticals under denaturing conditions (ThT fluorescence, tPA activation); assay type: physicochemical; settings: ThT at 25 μg/mL, tPA activation at 100 μg/mL
Method: To mimic accelerated stability testing several therapeutics were exposed to denaturing conditions and assayed for amyloid-like properties before and after treatment by tPA activation assay at 100 μg/mL protein and ThT fluorescence enhancement assay at 25 μg/mL protein. For this purpose, 5 mg/mL Glucagon (Glucagen; Novo Nordisk Farma B.V., Alphen aan de Rijn, The Netherlands) was incubated at 37° C. in 0.01 M HCl for 48 hours. One mg/mL Etanercept (Enbrel; Wyeth Pharmaceuticals B.V., Hoofddorp, The Netherlands) in 67 mM sodium phosphate buffer, 100 mM NaCl pH 7.0 was gradually heated from 30° C. to 85° C. over a period of 12 minutes and afterwards cooled to 4° C. for 5 minutes, this treatment was repeated 4 times. Abciximab (Reopro; Centocor B.V., Leiden, The Netherlands) and Infliximab (Remicade; Schering-Plough B.V., Utrecht, The Netherlands) were incubated at 65° C. for 16 and 72 hours, respectively.

tPA [4] = target: T1, tPA; experiment: Plasminogen-activation assay (tPA-mediated Plg to Pls, S-2251); assay type: biochemical; settings: for tPA activating potential of native and denatured glucagon and Etanercept: FIG. 6E, G
Method: (§4) Plasmin (Pls) activity was assayed as described^7. Peptides and proteins that were tested for their stimulatory ability were regularly used at 100 μg ml^−1. […] Chromogenic substrate S-2251 (Chromogenix, Instrumentation Laboratory SpA, Milano, Italy) was used to measure Pls activity. Conversion of zymogen factor XII (#233490, Calbiochem, EMD Biosciences, Inc., San Diego, Calif.) to proteolytically active factor XII (factor XIIa) was assayed by measurement of the conversion of chromogenic substrate Chromozym-PK (Roche Diagnostics, Almere, The Netherlands) by kallikrein. Chromozym-PK was used at a concentration of 0.3 mM. Factor XII, human plasma prekallikrein (#529583, Calbiochem) and human plasma cofactor high-molecular weight kininogen (#422686, Calbiochem) were used at concentrations of 1 μg ml^−1. […] Assays were performed using microtiter plates (Costar, Cambridge, Mass., USA). Peptides and proteins were tested for their ability to activate factor XII. 150 μg ml^−1 kaolin, an established activator of factor XII was used as positive control and solvent (H2O) as negative control. The conversion of Chromozym-PK was recorded kinetically at 37° C. for at least 60 minutes. Assays were done in duplicate. […] Alternatively, chromogenic substrate S-2222 (Chromogenix) was used to follow the activity of factor XII itself. With S-2222, activation of factor XII in plasma was measured, using 60% v/v plasma, diluted with substrate and H2O with or without potential cofactor. Furthermore, auto-activation of factor XII was measured by incubating 53 μg ml^−1 purified factor XII in 50 mM Tris-HCl buffer pH 7.5 with 1 mM EDTA and 0.001% v/v Triton-X100, with S-2222 and H2O with or without potential cofactor.
as §2
Purification of β2-glycoprotein I (β2GPI) was performed according to established methods^11,12. Recombinant human β2GPI was made using insect cells and purified as described^11. Plasma derived β2GPI as used in a factor XII ELISA, the chromogenic Plg-activation assay and in the anti-phospholipid syndrome antibody ELISA (see below), was purified from fresh human plasma as described^12.
To prepare structurally altered ovalbumin (OVA) with amyloid cross-β structure conformation, purified OVA (Sigma, A-7641, lot 071k7094) was heated to 85° C. One mg ml^−1 OVA in 67 mM NaPi buffer pH 7.0, 100 mM NaCl, was heated for two cycles in PCR cups in a PTC-200 thermal cycler (MJ Research, Inc., Waltham, Mass., USA). In each cycle, OVA was heated from 30 to 85° C. at a rate of 5° C./min. Native OVA (nOVA) and heat-denatured OVA (dOVA) were tested in the ThT fluorescence assay and in the Plg-activation assay. In the fluorescence assay and in the Plg-activation assay, 25 and 100 μg ml^−1 nOVA and dOVA were tested, respectively. TEM images of nOVA and dOVA were taken to check for the presence of large aggregates. […] MSA (#126674, Calbiochem) was dissolved in 8 M urea, 100 mM Tris-HCl pH 8.2, at 10 mg ml^−1 final concentration.

tPA [5] = target: T1, tPA; experiment: tPA ELISA with coated protein therapeutics; assay type: binding; settings: 5 μg ml^−1 coated, stored at 4° C.
Method: as §2

tPA [6] = target: T1, tPA; experiment: tPA binding assay with immobilized biopharmaceuticals in an ELISA; settings: therapeutic coated 1:10; one-site binding fit
Method: Nunc Immobilizer plates (Nalge Nunc, #436013, Rochester, N.Y., USA) were coated with 50 μL containing 5 μg/mL of sample protein (unless indicated otherwise) in 100 mM NaHCO3, pH 9.6, 0.05% m/v NaN3 for 1 hour at room temperature. Plates were washed twice with Tris buffered saline pH 7.2 containing 0.1% Tween20 (TBST) and blocked with PBS containing 1% Tween20 for 1 hour at room temperature. […] Plates were washed five times with TBST and incubated with peroxidase labeled anti-mouse immunoglobulins (RAMPO; DAKOCytomation, Glostrup, Denmark) diluted 1:3000 in PBST for 30 minutes at room temperature. Plates were washed five times with PBS 0.1% Tween20, and stained with 100 μL/well of tetramethyl-benzidine (TMB) substrate (Biosource Europe, Nivelles, Belgium). The reaction was terminated with 50 μL/well of 2 M H2SO4 and substrate conversion was read at 450 nm on a Spectramax340 microplate reader. Curves were fitted with a one-site binding model (GraphPad Prism version 4.02 for Windows, Graphpad Software, CA, USA) from which Kd and Bmax were determined.
as §3

factor XII = target: T2, factor XII (Homo sapiens, UniProt P00748); experiment: Chromogenic factor XII/prekallikrein activation assay (Chromozym-PK); assay type: biochemical
T2 construct: purchased Calbiochem, EMD Biosciences #233490
T2 sequence (P00748 20-615): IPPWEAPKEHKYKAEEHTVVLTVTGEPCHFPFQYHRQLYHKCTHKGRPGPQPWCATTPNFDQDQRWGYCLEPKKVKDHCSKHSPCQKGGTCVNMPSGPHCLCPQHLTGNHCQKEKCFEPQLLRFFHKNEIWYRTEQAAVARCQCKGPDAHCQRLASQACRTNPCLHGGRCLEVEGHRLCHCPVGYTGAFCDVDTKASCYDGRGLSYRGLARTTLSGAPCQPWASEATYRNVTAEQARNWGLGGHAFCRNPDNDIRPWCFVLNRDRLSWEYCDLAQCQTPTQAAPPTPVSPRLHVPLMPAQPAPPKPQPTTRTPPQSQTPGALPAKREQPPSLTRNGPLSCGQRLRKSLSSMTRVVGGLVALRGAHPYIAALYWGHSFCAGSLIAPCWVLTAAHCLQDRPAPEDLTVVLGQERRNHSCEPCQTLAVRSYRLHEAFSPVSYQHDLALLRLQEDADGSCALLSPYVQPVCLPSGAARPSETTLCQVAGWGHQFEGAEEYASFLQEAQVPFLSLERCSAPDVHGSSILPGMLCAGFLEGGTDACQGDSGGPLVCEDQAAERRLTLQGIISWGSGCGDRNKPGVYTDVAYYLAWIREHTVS
Method: as §4, §2

Row | Substance | Fluorescence (a.u. +/− SD) CR (Congo red fluorescence) | Fluorescence (a.u. +/− SD) ThT [1] | tPA activation Max. Activation (%) (tPA [2]) | amyloid-like properties after exposure to harsh denaturing conditions (low pH, heat) [3] | enhancement of Congo red fluorescence (Congo red fluorescence) | enhancement of ThT fluorescence ([1]; therapeutics stored at 4° C.) | tPA activation by protein therapeutics (tPA [4]; stored at 4° C., GH 500 μg ml^−1, zinc-insulin diluted tenfold) | binding of tPA to immobilized therapeutic (tPA [5]) | tPA Binding Bmax (OD450 nm) (tPA [6]) | factor XII activation by gelatin (factor XII; kept at 37° C.) | factor XII/prekallikrein activation by protein therapeutics (factor XII; stored at 4° C.) | Congo red fluorescence of gelatin (Congo red fluorescence; stored at 4° C. and 37° C.) | tPA activating potential of native and denatured glucagon and Etanercept (tPA [4]) | ThT fluorescence enhancement of native and denatured proteins ([1]; 25 μg ml^−1)
1 | Infliximab: human-murine chimeric monoclonal antibody (Remicade-infliximab) | 67 +/− 2 a.u. | 19 +/− 1 a.u. | 0% | amyloid-like properties are adopted | – | – | – | – | – | – | – | – | – | –
2 | Somatropin: human growth hormone (GH) (Genotropin, Pharmacia) | 429 +/− 2 a.u. | 1317 +/− 10 a.u. | – | – | to some extent | enhance fluorescence of ThT | induced tPA activation | binding of tPA was established | 0.9369 OD450 nm | – | – | – | – | –
3 | gelatin | – | – | – | – | enhanced the fluorescence of Congo red | – | – | binding of tPA was established | – | activated factor XII | not | enhanced Congo red fluorescence in a storage temperature dependent manner | – | –
4 | Glucagon: human glucagon (Glucagen, Novo Nordisk) | – | 48 +/− 1 a.u. | 11.25% | amyloid-like properties are adopted | – | – | – | – | – | – | – | – | has some tPA activating potential | –
5 | Etanercept | – | 23 +/− 3 a.u. | 0% | amyloid-like properties are adopted | – | – | – | – | – | – | – | – | induces some tPA activation | gave some ThT fluorescence enhancement
